# Results from patent US20050118674A1, “Engineering of Controlled Deamidation Rates in Peptides, Proteins, and Similar Structures” (priority 2003, published 2005).
# Where no end group is shown, it is not given here.
# Assay: First-order nonenzymatic deamidation of pentapeptides in Tris buffer
# Type: physicochemical
# Conditions: 0.15 M Tris HCl; for First-Order Deamidation Halftimes of GlyXxxAsnYyyGly: pH 7.4, 37.0° C., Asn pentapeptides; for First-Order Deamidation Halftimes of GlyXxxGlnYyyGly: pH 7.4, 37.0 ° C., Gln pentapeptides, 52 values measured, rest derived from surface fitting
# Procedure: One of the discoveries made was that the sequence dependence of deamidation is much richer and covers a wider range than previously thought. In 37° C., pH 7.4, 0.15 M Tris buffer, the combination of XxxAsnYyy and XxxGlnYyy sequences where Xxx and Yyy are any of the naturally occuring amino acids covers a range from less than 1 day to over 15,000 days with the entire range in between available.
# It is based on pentapeptide rates measure in 37° C., pH 7.4, 0.15 M Tris buffer. The applicability of a pentapeptide model to sequence dependence was verified in a separate set of experiments. All values listed in this table are experimental except for the four values in boxes, which were estimated from the rest of the data.
# It is also based on pentapeptide rates measure in 37° C., pH 7.4, 0.15 M Tris buffer. In this case, the 52 values shown in bold were measured, and the rest of the values were derived from surface fitting.
# Deamidation rates are affected by a wide variety of parameters, including, pH, Temperature, Ionic Strength, and Buffer Ions. These rates are measured under pH and Temperature conditions that are applicable to biological systems. The buffer type and concentration were chosen to minimize ion affects to the extent possible given the experimental limitations. Modification of these conditions will change the rates in Tables 1 and 2. As long as the conditions are not taken to extremes (i.e. high temperature, or strongly acidic or basic conditions) the qualitative sequence dependence should remain the same and the rates reported here can be used with necessary adjustments.
Substance,First-Order Deamidation Halftimes of GlyXxxAsnYyyGly [days],First-Order Deamidation Halftimes of GlyXxxGlnYyyGly [days]
GlyAlaAsnAlaGly (GANAG; printed: GlyAlaAsnAlaGly),22.5,–
GlyAlaAsnAmCysGly,40.6,–
GlyAlaAsnArgGly (GANRG; printed: GlyAlaAsnArgGly),62.4,–
GlyAlaAsnAspGly (GANDG; printed: GlyAlaAsnAspGly),31.9,–
GlyAlaAsnCysGly (GANCG; printed: GlyAlaAsnCysGly),63.7,–
GlyAlaAsnGluGly (GANEG; printed: GlyAlaAsnGluGly),74.1,–
GlyAlaAsnGlyGly (GANGG; printed: GlyAlaAsnGlyGly),1.05,–
GlyAlaAsnHisGly (GANHG; printed: GlyAlaAsnHisGly),9.3,–
GlyAlaAsnIleGly (GANIG; printed: GlyAlaAsnIleGly),300,–
GlyAlaAsnLeuGly (GANLG; printed: GlyAlaAsnLeuGly),124,–
GlyAlaAsnLysGly (GANKG; printed: GlyAlaAsnLysGly),55.9,–
GlyAlaAsnMetGly (GANMG; printed: GlyAlaAsnMetGly),59.2,–
GlyAlaAsnPheGly (GANFG; printed: GlyAlaAsnPheGly),65.6,–
GlyAlaAsnProGly (GANPG; printed: GlyAlaAsnProGly),7370,–
GlyAlaAsnSerGly (GANSG; printed: GlyAlaAsnSerGly),14.9,–
GlyAlaAsnThrGly (GANTG; printed: GlyAlaAsnThrGly),43.5,–
GlyAlaAsnTrpGly (GANWG; printed: GlyAlaAsnTrpGly),130,–
GlyAlaAsnTyrGly (GANYG; printed: GlyAlaAsnTyrGly),73.9,–
GlyAlaAsnValGly (GANVG; printed: GlyAlaAsnValGly),254,–
GlyAlaGlnAlaGly (GAQAG; printed: GlyAlaGlnAlaGly),–,5300
GlyAlaGlnArgGly (GAQRG; printed: GlyAlaGlnArgGly),–,7200
GlyAlaGlnAspGly (GAQDG; printed: GlyAlaGlnAspGly),–,7400

Substance,First-Order Deamidation Halftimes of GlyXxxAsnYyyGly [days],First-Order Deamidation Halftimes of GlyXxxGlnYyyGly [days]
GlyAlaGlnCysGly (GAQCG; printed: GlyAlaGlnCysGly),–,1900
GlyAlaGlnGluGly (GAQEG; printed: GlyAlaGlnGluGly),–,7300
GlyAlaGlnGlyGly (GAQGG; printed: GlyAlaGlnGlyGly),–,610
GlyAlaGlnHisGly (GAQHG; printed: GlyAlaGlnHisGly),–,5500
GlyAlaGlnIleGly (GAQIG; printed: GlyAlaGlnIleGly),–,6200
GlyAlaGlnLeuGly (GAQLG; printed: GlyAlaGlnLeuGly),–,6100
GlyAlaGlnLysGly (GAQKG; printed: GlyAlaGlnLysGly),–,5700
GlyAlaGlnMetGly (GAQMG; printed: GlyAlaGlnMetGly),–,4400
GlyAlaGlnPheGly (GAQFG; printed: GlyAlaGlnPheGly),–,7500
GlyAlaGlnProGly (GAQPG; printed: GlyAlaGlnProGly),–,9300
GlyAlaGlnSerGly (GAQSG; printed: GlyAlaGlnSerGly),–,5200
GlyAlaGlnThrGly (GAQTG; printed: GlyAlaGlnThrGly),–,5100
GlyAlaGlnTrpGly (GAQWG; printed: GlyAlaGlnTrpGly),–,14000
GlyAlaGlnTyrGly (GAQYG; printed: GlyAlaGlnTyrGly),–,10000
GlyAlaGlnValGly (GAQVG; printed: GlyAlaGlnValGly),–,6400
GlyAmCysAsnAlaGly (CNAG; not fully specified (N-terminus); printed as GlyAmCysAsnAlaGly),21.5,–
GlyAmCysAsnAmCysGly,39.3,–
GlyAmCysAsnArgGly (CNRG; not fully specified (N-terminus); printed as GlyAmCysAsnArgGly),58.8,–
GlyAmCysAsnAspGly (CNDG; not fully specified (N-terminus); printed as GlyAmCysAsnAspGly),32.9,–
GlyAmCysAsnGluGly (CNEG; not fully specified (N-terminus); printed as GlyAmCysAsnGluGly),45,–
GlyAmCysAsnGlyGly (CNGG; not fully specified (N-terminus); printed as GlyAmCysAsnGlyGly),1.14,–
GlyAmCysAsnHisGly (CNHG; not fully specified (N-terminus); printed as GlyAmCysAsnHisGly),10.9,–

Substance,First-Order Deamidation Halftimes of GlyXxxAsnYyyGly [days],First-Order Deamidation Halftimes of GlyXxxGlnYyyGly [days]
GlyAmCysAsnIleGly (CNIG; not fully specified (N-terminus); printed as GlyAmCysAsnIleGly),250,–
GlyAmCysAsnLeuGly (CNLG; not fully specified (N-terminus); printed as GlyAmCysAsnLeuGly),100,–
GlyAmCysAsnLysGly (CNKG; not fully specified (N-terminus); printed as GlyAmCysAsnLysGly),48.9,–
GlyAmCysAsnMetGly (CNMG; not fully specified (N-terminus); printed as GlyAmCysAsnMetGly),56.5,–
GlyAmCysAsnPheGly (CNFG; not fully specified (N-terminus); printed as GlyAmCysAsnPheGly),63.3,–
GlyAmCysAsnProGly (CNPG; not fully specified (N-terminus); printed as GlyAmCysAsnProGly),3900,–
GlyAmCysAsnSerGly (CNSG; not fully specified (N-terminus); printed as GlyAmCysAsnSerGly),15.4,–
GlyAmCysAsnThrGly (CNTG; not fully specified (N-terminus); printed as GlyAmCysAsnThrGly),41.7,–
GlyAmCysAsnTrpGly (CNWG; not fully specified (N-terminus); printed as GlyAmCysAsnTrpGly),81.3,–
"GlyAmCysAsnTyrGly (CNYG; not fully specified (N-terminus); printed as GlyAmCysAsnTyrGly; also: glycinamide shown before Cys, linkage not given here)",78.8,–
"GlyAmCysAsnValGly (CNVG; not fully specified (N-terminus); printed as GlyAmCysAsnValGly; also: glycinamide shown before Cys, linkage not given here)",215,–
GlyArgAsnAlaGly (GRNAG; printed: GlyArgAsnAlaGly),24.4,–
GlyArgAsnAmCysGly,42.3,–
GlyArgAsnArgGly (GRNRG; printed: GlyArgAsnArgGly),67.4,–
GlyArgAsnAspGly (GRNDG; printed: GlyArgAsnAspGly),34.7,–
GlyArgAsnCysGly (GRNCG; printed: GlyArgAsnCysGly),50.5,–
GlyArgAsnGluGly (GRNEG; printed: GlyArgAsnGluGly),68.3,–
GlyArgAsnGlyGly (GRNGG; printed: GlyArgAsnGlyGly),1.00,–
GlyArgAsnHisGly (GRNHG; printed: GlyArgAsnHisGly),10.0,–
GlyArgAsnIleGly (GRNIG; printed: GlyArgAsnIleGly),311,–
GlyArgAsnLeuGly (GRNLG; printed: GlyArgAsnLeuGly),128,–
